For data set [1], the target named is T1, Cdk5/P25 (Homo sapiens, UniProt Q00535). Briefly: In vitro kinase (pad) assay of active Cdk5/P25 with histone H1 as substrate. Type of data set: biochemical. The conditions noted are these: in vitro kinase assay, histone H1, FIG. 1. The protocol: Kinase assays were performed as previously described (Veeranna, et al., J Neurosci 18(11), 4008-4021, 1998). Briefly, 7 days in culture (7 DIC) primary rat cortical neurons were infected with P25, P35, Cdk5 wild-type, dominant negative-Cdk5 and P5 using the lentiviral gene delivery as described earlier. Cdk5 was immunoprecipitated using the polyclonal C8 antibody overnight at 4° C. and immunoglobulin isolated using Protein A sepharose beads for 2 hours at 4° C. Immunoprecipitates were washed three times with lysis buffer and then once with 1× kinase buffer containing 20 mM Tris-Cl pH 7.4, 1 mM EDTA, 1 mM EGTA, 10 mM MgCl2, 10 mM sodium fluoride and 1 mM sodium orthovanadate. Endogenous Cdks were immunoprecipitated from HEK 293 cells using their respective antibodies and treated as above. Kinase assays were performed in the same buffer containing 1 mM DTT, 0.1 mM ATP and 0.185 MBq [γ-32P] ATP with 20 μg of histone H1 as the substrate. Phosphorylation was performed in a final volume of […] incubated at 30° C. for 60 minutes, stopped by the addition of 10% SDS sample buffer and heating at 95° C. for 5 minutes. Samples were separated by SDS-PAGE, gels were stained with Coomassie, destained, dried and exposed to autoradiography. In pad assays, 25 μl aliquots of the incubation mixture were placed on a Whatman p80 paper square, washed and dried and placed in a scintillation vial for counting.
These are GST-P1 (E211-A277 of SEQ ID NO: 16), 67 amino acid residues; GST-P2 (M237-A277), 41 residues; GST-P3 (E221-L267 of SEQ ID NO: 16), 47 residues; GST-P4 (E221-L249 of SEQ ID NO: 16), 29 residues and GST-P5 (K254-A277 of SEQ ID NO: 16) 24 residues. Each was incubated with active Cdk5/P25 in a kinase assay in vitro. […] FIG. 10 provides a comparison of P5 and CIP, relative to P35.
In a dose-dependent kinase assay the effective inhibitory concentration of P5 for both the Cdk5/P25 and Cdk5/P35 complexes was evaluated. His-P5 peptide was added at different concentrations to the in vitro assay containing 100 μM [γ32-P] ATP and histone H1. Inhibition increased progressively with increasing P5 concentration in both complexes (Compare FIGS. 2A, 2B with 2C, 2D).
P5, a 24 amino acid peptide derived from Cdk5 regulator p35, was modified by conjugating it with TAT PTD at the C-terminal end and with FITC (using a GGG linker) at the N-terminus to produce a fluorescent (FITC-labeled) TFP5 (SEQ ID NO: 2) peptide. In a dose-dependent kinase assay the effective inhibitory concentration of TFP5 for both the Cdk5/P25 and Cdk5/P35 complexes was evaluated. His-P5 peptide was added at different concentrations to the in vitro assay containing 100 μM [γ32-P] ATP and histone H1. […] Data represent means of four independent experiments with error bars representing SEM (*p≦0.05, **p≦0.001).

The next data set relates to tau phosphorylation. Briefly: Aβ-induced tau phosphorylation in cortical neurons, Western blot. Type of data set: cell-based, rat. The conditions noted are these: Aβ 6 h; P5 infection or roscovitine. The protocol: Primary cultures of rat cortical neurons were prepared from E-18 rat fetuses as described previously (Zheng et al., J Biol Chem 278(26), 24026-24032, 2003). After 7 days, cells were infected independently or co-infected with empty vector (EV), the constructs of P5, P25, P35, wild-type Cdk5 and dominant negative Cdk5 (changing Lys33 to Thr33) using the Adenoviral vector (pAdTrack-CMV) packaging system as described above. […] The cells were fixed for immunocytochemistry analyses (ICC) or lysed with lysis buffer for immunoprecipitation and Western blot analyses. Cortical neuron cultures were prepared and plated on the cover slips as described. Human embryo kidney cells (HEK293) were grown as described previously (Zheng et al., Eur J Biochem 269(18), 4427-4434, 2002). In these studies HEK293 cells on day 1, or neurons on day 5, were transfected with or without Myc-P5-GFP using Lipofectamine 2000 following the manufacturer's instructions.
(§1) Western blot analysis was performed as previously described (Zheng et al., Eur J Biochem 269(18), 4427-4434, 2002). In brief, an equal amount of total protein (20 μg/lane) was resolved on a 4-20% SDS polyacrylamide gel and blotted onto a polyvinylidene difluoride membrane. This membrane was incubated in blocking buffer containing 20 mM Tris-HCl (pH 7.4), 150 mM NaCl, and 0.1% (vol/vol) Tween 20 (TTBS) plus 5% dry milk (w/v) for 1 hour at room temperature followed by incubation overnight at 4° C. in primary antibodies (see antibodies). The membranes were then washed four times in TTBS (5 minutes/each) followed by incubation in secondary antibody (goat-antimouse or goat anti-rabbit IgG (H+L)-horseradish peroxidase (HRP) conjugate at a dilution of 1:3000) for 1 hour at room temperature. Western blots were analyzed using the Amersham Enhanced Chemiluminescence (ECL) kit following the manufacturer's instructions (GE Healthcare, Piscataway, N.J.).
Amyloid plaques and neurofibrillary tangles, pathological hallmarks of several neurodegenerative disorders, are linked to deregulated Cdk5 and neuronal death. According to one model, β amyloid, being toxic, may evoke abnormal calcium influx into neurons which activates calpains. […] Hyperactivation of Cdk5, leads to the aberrant phosphorylation of tau and neurofilaments in a number of neurodegenerative diseases including AD and ALS. For example, primary cortical neurons, when treated with Aβ1-42 are induced to form Cdk5/P25 complexes, hyperactive Cdk5 activity, hyperphosphorylation of tau, and neuronal apoptosis. To determine whether P5 will inhibit endogenous tau phosphorylation induced by Aβ treatment in cortical neurons, 7 day old cortical neurons, infected with empty vector (EV) or with P5 were treated with Aβ for 6 hours, lysed and prepared for Cdk5 immunoprecipitation and kinase assay. Aβ treatment causes an approximate 3-fold increase in endogenous Cdk5 activity as visualized by histone H1 phosphorylation (FIG. 4A, panel 5, lane 2; FIG. 4B).
; FIG. 4D). […] Tau antibodies p-Ser404, PHF antibody AT180 (recognizes p-Thr231) and p-Ser422 antibodies were used to observe whether P5 affects other tau phosphorylation residues (FIGS. 4E, 4F). […]. Tau 5 recognizes total tau, nonphosphorylated as well as phosphorylated.
For orientation: Immunoblotting shows a protein as a band on a membrane.

The test system of the next data set is cleaved caspase-3. Briefly: Cleaved caspase-3 Western blot in Aβ-treated cortical neurons. Type of data set: cell-based, rat. Conditions: Aβ 6 h; P5 infection or roscovitine. The protocol: as §1
To determine whether P5 inhibited neuronal apoptosis induced by Aβ, primary cortical neurons (5 days in culture (DIC)) were transfected with P5-GFP using Lipofectamine 2000. After 24 hours, cells were exposed to Aβ for 6 hours. The neurons were fixed and subjected to TUNEL staining, while P5 was visualized by (green fluorescent protein) GFP. […] The data are quantified in FIG. 5B. […] The data are quantified in FIG. 5D.

Data set [2] deals with T1, Cdk5/P25. The conditions noted are these: earlier studies; cited from earlier work.
Data set [3] addresses T1, Cdk5/P25. The conditions noted are these: earlier studies, cited from earlier work.
Data set [4] is described as follows: Toxicity of ip TFP5 in mice. Type of data set: in vivo, mouse. The conditions noted are these: ip TFP5 (0.2 mM; or 10 weeks in three AD mice).

The values below come from US8597660B2, “Therapeutic approach to neurodegenerative disorders using a TFP5-peptide” (The United States of America, as represented by the …, priority 2010, dated 2013).

Entries after “also recorded” stand apart in the source; their conditions may differ. Peptide text beside a SMILES is read from it. * marks the point of attachment. FITC = O=C1OC2(c3ccc(O)cc3Oc3cc(O)ccc32)c2ccc(NC(=S)*)cc21

T1 sequence (Q00535 whole entry, species assumed): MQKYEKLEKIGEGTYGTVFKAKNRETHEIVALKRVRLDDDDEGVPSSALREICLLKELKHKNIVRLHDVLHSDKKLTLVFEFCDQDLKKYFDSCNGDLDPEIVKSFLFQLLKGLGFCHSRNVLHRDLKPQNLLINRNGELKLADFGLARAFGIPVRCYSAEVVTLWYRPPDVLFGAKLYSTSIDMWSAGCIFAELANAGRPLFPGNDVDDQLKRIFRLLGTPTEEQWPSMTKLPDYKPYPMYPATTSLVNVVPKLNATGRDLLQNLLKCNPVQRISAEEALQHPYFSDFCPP

“P3: 47 residue peptide derived from CIP, E221-L267 of SEQ ID NO: 16 (P35)”: the “Inhibition of Cdk5/P25 activity, comparison among peptides and CIP” value with Cdk5/P25 [1] is recorded as “more effective inhibitors of Cdk5/P25 activity than CIP”.

Take `CC[C@H](CO)Nc1nc(NCc2ccccc2)c2ncn(C(C)C)c2n1` [roscovitine, reference compound]: in the data set on tau phosphorylation, the “Aβ-induced tau phosphorylation at Ser422” value was “significantly inhibits tau phosphorylation at Ser422 site”; the “Aβ-induced tau phosphorylation detected by AT8 and p-Ser199/202 antibodies” value is reported as “baseline levels of tau phosphorylation; also recorded: significantly inhibited”. The “Cleaved caspase-3 expression” value with cleaved caspase-3 is “reduced levels of cleaved caspase-3 comparable to that seen with P5 infection”.

As to “CIP: 125-amino acid truncated peptide from P35 (residues 154-279 of SEQ ID NO: 16), inhibitor of Cdk5/P25”, the “Inhibition of Cdk5/P25 activity by CIP” value with Cdk5/P25 [2] was “highly effective and specific inhibitor of Cdk5/P25 activity”. In addition, the Tau hyperphosphorylation result in the data set with Cdk5/P25 [3] was “reduces tau hyperphosphorylation”. Besides, the “Apoptosis induced by Cdk5/P25” value with Cdk5/P25 [3] (transfected HEK cells and neurons) was “protects transfected HEK cells and neurons from apoptosis”.

`CC[C@H](C)[C@H](NC(=O)[C@H](CCC(N)=O)NC(=O)[C@H](CC(C)C)NC(=O)[C@H](CCSC)NC(=O)[C@H](CCCCN)NC(=O)[C@H](CO)NC(=O)[C@H](CO)NC(=O)[C@H](CCSC)NC(=O)[C@H](CC(C)C)NC(=O)[C@H](CC(N)=O)NC(=O)[C@@H](NC(=O)[C@@H](NC(=O)[C@H](CO)NC(=O)[C@H](CC(C)C)NC(=O)[C@H](CS)NC(=O)[C@H](CCCNC(=N)N)NC(=O)[C@H](CC(=O)O)NC(=O)[C@H](Cc1c[nH]c2ccccc12)NC(=O)[C@H](Cc1ccccc1)NC(=O)[C@H](C)NC(=O)[C@H](CCC(=O)O)NC(=O)[C@H](CCCCN)NC(=O)CNC(=O)CNC(=O)CNC(=S)Nc1ccc2c(c1)C(=O)OC21c2ccc(O)cc2Oc2cc(O)ccc21)C(C)C)[C@@H](C)CC)C(=O)N[C@@H](CC(N)=O)C(=O)N[C@@H](C)C(=O)N[C@@H](Cc1ccc(O)cc1)C(=O)N[C@@H](C)C(=O)N[C@@H](CCCNC(=N)N)C(=O)N[C@@H](C)C(=O)N[C@@H](C)C(=O)N[C@@H](CCCNC(=N)N)C(=O)N[C@@H](CCCNC(=N)N)C(=O)N[C@@H](C)C(=O)N[C@@H](C)C(=O)N[C@@H](CCCNC(=N)N)C(=O)N[C@@H](CCCNC(=N)N)C(=O)O` [TFP5] ({FITC}-GGGKEAFWDRCLSVINLMSSKMLQINAYARAARRAARR-OH): the Toxicity in vivo result in data set [4] is recorded as “without any toxicity; also recorded: without resulting in cell death; also recorded: no toxic effects were observed”.
